# Reference: the DeepSol protein solubility set
# Assay: soluble on expression in E. coli; label from the status in PepcDB or PDB records
row,Sequence,soluble on expression in E. coli
1,MGSDKIHHHHHHMRALSFIFIALILVGCNEPAKEITKPIRPIMWTKVKISPFEQIRTLSGIVAPVEATKLSFEVQGKIQTIEVNLGNEVVKGQELARLNQRNFNLGLQSAQAQYQQAKATLIDARNSHRRYEQLLKQGVVSQSGFDNAKATYDASKSAADVAQAQLDIASKNLQDSILLAPYDGIITKRLYEPSQQISAGQSLFEIEGKHGLEVHVMVPETLIRELRQLSILPIHFPVLPELTMQGQITEIGTRAEYANAFPVTAVLEGDNPLLRAGMTAEVDFSFSGTGRTGHTGDVFRIPATALSAGLEQKAYVFVYNPDSQQVIKTQVQTENIFKNEVFISSGLKQGDIIAIAGVAFLRDGQQVSLTDNNVQRFN,not soluble
2,HHHHHHAIAENLYFQSGRYRIRVATGAWLFSGSYNRVQLWLVGTRGEAELELQLRPARGEEEEFDHDVAEDLGLLQFVRLRKHHWLVDDAWFCDRITVQGPGACAEVAFPCYRWVQGEDILSLPEGTARLPGDNALDMFQKHREKELKDRQQIYCWATWKEGLPLTIAADRKDDLPPNMRFHEEKRLDFEWTLKAGALEMALKRVYTLLSSWNCLEDFDQIFWGQKSALAEKVRQCWQDDELFSYQFLNGANPMLLRRSTSLPSRLVLPSGMEELQAQLEKELQNGSLFEADFILLDGIPANVIRGEKQYLAAPLVMLKMEPNGKLQPMVIQIQPPSPSSPTPTLFLPSDPPLAWLLAKSWVRNSDFQLHEIQYHLLNTHLVAEVIAVATMRCLPGLHPIFKFLIPHIRYTMEINTRARTQLISDGGIFDKAVSTGGGGHVQLLRRAAAQLTYCSLCPPDDLADRGLLGLPGALYAHDALRLWEIIARYVEGIVHLFYQRDDIVKGDPELQAWCREITEVGLCQAQDRGFPVSFQSQSQLCHFLTMCVFTCTAQHAAINQGQLDWYAWVPNAPCTMRMPPPTTKEDVTMATVMGSLPDVRQACLQMAISWHLSRRQPDMVPLGHHKEKYFSGPKPKAVLNQFRTDLEKLEKEITARNEQLDWPYEYLKPSCIENSVTI,soluble
3,MAAKKDYYAILGVPRNATQEEIKRAYKRLARQYHPDVNKSPEAEEKFKEINEAYAVLSDPEKRRIYDTYGTTEAPPPPPPGGYDFSGFDVEDFSEFFQELFGPGLFGGFGRRSRKGRDLRAELPLTLEEAFHGGERVVEVAGRRVSVRIPPGVREGSVIRVPGMGGQGNPPGDLLLVVRLLPHPVFRLEGQDLYATLDVPAPIAVVGGKVRAMTLEGPVEVAVPPRTQAGRKLRLKGKGFPGPAGRGDLYLEVRITIPERLTPEEEALWKKLAEAYYARA,soluble
4,MGSDKIHHHHHHMKTSKKWIAHFEANALHQRINWDLFPAITEAETASVLSSLQAWQLGETSDGAHLIHASTLYASHIGDLDYIDAVKLFIKEEQKHGNNLGRYLDVIDKPRIKKDWGDSLFRKIRYFNTNMEIWTLAVITVESAAQVFYQCLKNATECTLLRQICTDILIDEAYHIDFQTERMTILFNKKSVLSRCLSRIMYPVFFFSTSLLVWSAHKKLFKAGGIDFKKYMNKMKYKYFKTLHRIALVCSRKSTLIHSALH,not soluble
5,MKIIKRNGSEAVFDISKIMMAVSRANEVVQANQKLSKAQINAIAAQVEEVCSTRPHAMNVEEIQDLVENQIMEQQAFEVARKYITYRYIRTLKRSSN,not soluble
6,MEKSAPSIILNHWCVTWQGHHFLCRNLSNIKILNRRNGYTTLDLPLTLGDLTQYRLAHGLSENLMALSPYSWTIPFLVSSSETPGIELLPKVINDFGTPLSLAIKTNLPSIPAHQLLFYIIFLRPSPLTSMSCYARPLSLASTPSLEHHHHHH,soluble
7,YYTDPSLIRQMWDKLERDGFTGGKILDPSMGTGNFFAAMPKHLREKSELYGVELDTITGAIAKHLHPNSHIEIKGFETVAFNDNSFDLVISNVPFANIRIADNRYDRPYMIHDYFVKKSLDLLHDGGQVAIISSTGTMDKRTENILQDIRETTEFLGGVRLPDSAFKAIAGTSVTTDMLFFQKHLDKGYVA,not soluble
8,EMKVLVPDTSVIVDGRLTQYLERLKEKVKVVVPEAVVAEIEHQANAGKAIGHTGLEELKKLREIANEGKILLEFYGERPDLWQIRRAKSGEIDNMVREVARELNGVLVTGDQIQRDIAIAKGIDVIYLEAKREPRMRLEDFFDEE,not soluble
9,MTELARLKFYATQPHSCSYLPEEQATTLFLDPSQPMDVHVYADLSEMGFRRSGDHLYRPHCQNCNACVPARIPAARFIPNRQQRRILKRNADLTVTAARPAFKEEYFELYRRYIETRHADGDMYPPSRDQFSTFLVRDLPFCWFYEFRLEGRLMAVAVCDLLPNGLSAVYTFYEPDEERRSLGRFAILWQITEALRQNLEAVYLGYWIKNCKKMNYKTQYRPIELLINQRWVTLNLEHHHHHH,not soluble
10,MDNLQKYKPTDKMIDLISDNYSLLQVMSRFGLSLGFGDKTVKEVCELNGVDCRTFLIVVNFMSEGFSRMDGSSEDISIPALIDYLRQAHIYFLDFSLPAIRRKLIEAIDCSQDDVAFLILKFFDEYTREVRKHMDYEEKTVFKYVDALINGNAPRNYQISTFSKHHDQVGEKLTELKNIIIKYCPAKANENLLNAALFDIYACEAGLESHCKVEDYIFVPAILKLERRIRENEK,not soluble
11,MSETKNITVPEINKTVEQMLIKGRWLDALDFWINNTDSLVLIRWLAQFISQLSPEEDSLLLQSIVRWKEGDDEQRWEIFRHAESVGFSTQTGALGVSLFVSQGSLSPAPYDPVYAPSCSEKKIIYGILMHQSNKYYDAPDEGVFFLFRHWCNSHS,not soluble
12,MGSISRYLLKKAADGLKDEQRLKIEMSDSKSVPECFHFNRERRMPIAEINGEDGFFMFPSQQSLENFENTKKYSNELSPDAIGIPLFQIINCTLPFGKRGHSNTVVGNVPYYKIFKFILRTADEPPPYTVAKIVCSNNGLILYKVPLYDIYKNVSQANVTYSFVGTTSTEPNLLAMAHREGHRDLDTKVNNLNLRWHVTYSPVVTNDHYKLILLADYEVNRLDEDVIRAAKNKMSIDQKDQKVQRFVAAHYTREFETSLFRWVAQEGHLILGEYSTDQGSFGLNNIPPLTEELGCQSLLIHYIEYMKRQRKKIAKEARRQNKRNVANTTNMNMNLM,soluble
13,MSYCCCQSNIPPDGCIRDGMPVFCGLFPSGYRAPPRSLSPPAFRSVLVSGHQPQYADCQTRTGRPVRSPVTPPPAHTSAVHGALSLPGQPADMAMMCFHSQPRDEYGETDDTGMYPAHWKDWPSGCTRSQSVYR,soluble
14,RDIKDLIVALDIGTSKVVAVVAEILPEGRFEVLGLGQHESRGMRKGVVVNIETTVNSIQRALEEAELMADCKIRDVYAGIAGSHIRSFNSSGMVAVKDKEVTATDVARVIETAKAVNIPTDQ,not soluble
15,MTAIEQTEAVRPRGTRLPRRARRNQLLGAAQEVFVAQGYHAAAMDDIAERAGVSKPVLYQHFPGKLDLYLALLDQHCEALIQSVRSALASTSDNKQRVRATMDAYFAYVEDDGGAFRLVFESDLTNEPAVRERVDKVTNECAEAICDVIAEDTGLSRAESMLLASGLGGLAQVVARSWLHSDRSVPRDQAVQLLTSLAWRGIAGFPLHGIEQH,not soluble
16,MAHHHHHHMPTTSMQAECDKIRSSGNECRRKFSGGNLLVVATDMDGTILDPKHRLTERTKDTLYELSTRGVHIIFATGRHHSCVHATRRDLLEHYKRRSTARGVPDSPTTGYDGFYIISSNGARVHNPNGDLIFLRDLDSDVVRVLYERFGIRDHGDDPRKVISVSAYQTEKWWINRTIMSDEESLAMFGVVPELHPDLKEFPTTGVGKVCFRCYDRDILHQYEAEIKEIFHGRATAVMSSEICLDVMAAEVSKAAALREIGRILNFDPEREAIAFGDSMNDGDMLCSVAKGCIMDNGQSRLKESLPHLEVVGSSSEDGVARKLQEVFQIFHE,soluble
17,EGDKVTGEVQQVEDKQVVVHINGGKFNGIIPISQLSTHHIENPSEVVKVGDEVEAYVTKIEFDEENDTGAYILSKRQ,not soluble
18,MPAWAARLGASRDQQRALEEERSRTQAALQVMPHMLIELDADERLLRGHPGWLDRLPTLGPMAPGQGLQDFLPVDLATEVRRVLAEVETTGAPVSRDWQVRQAGARVWLAISAARLPPLA,not soluble
19,MLLENFYKIIHIKEREDGKQEIEIELNPGHVLYQGHFPGQPVVPGVCTLQIIKESAEQIASQPLQYVQIASSKFLSAINPLETPLLQLFIRLEKTEEHLFKLQAEGICNGKEFIKLKAVLMASKYQLEHHHHHH,soluble
